This note sets out measurements from paper PMC8080463.

aFGF, sequence (P05230 16-155): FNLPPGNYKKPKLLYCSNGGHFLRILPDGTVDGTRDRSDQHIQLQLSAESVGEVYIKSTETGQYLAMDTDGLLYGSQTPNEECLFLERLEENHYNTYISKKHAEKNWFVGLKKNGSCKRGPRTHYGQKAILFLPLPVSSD
bFGF, sequence (P09038 143-288): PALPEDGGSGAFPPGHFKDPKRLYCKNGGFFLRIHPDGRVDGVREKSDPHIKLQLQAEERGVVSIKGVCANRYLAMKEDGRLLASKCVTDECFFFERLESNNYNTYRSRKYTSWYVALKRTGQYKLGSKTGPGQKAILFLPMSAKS
HB-EGF, sequence (Q99075 63-148): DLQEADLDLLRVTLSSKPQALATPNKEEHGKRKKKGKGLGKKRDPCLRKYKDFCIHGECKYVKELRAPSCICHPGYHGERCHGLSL

The first data set concerns the target bFGF (UniProt P09038 143-288). In words: SPR.
Turning to GGAAAGGAGGGGG (ssDNA) [bFGF-PQS11], the binding result is recorded as “no binding”.
The same measure, in the same setting: for GGGGTTGGGCGGGGGTGACTTTTGGGGGATAAGGGG (ssDNA) [bFGF-PQS1] the value was “no binding”; for GGGAGGAGGGTGCAGGCTGGAGG (ssDNA) [bFGF-PQS12], “no binding”.
On the same count and under the same terms, in the case of GGGAGGCTGGGGGGCCGGGGCCGGGG (ssDNA) [bFGF-PQS5] it was “no binding”.
Turning to GGGCACGGCCCCGGCCCCGG (ssDNA) [bFGF-PQS15], the binding result is recorded as “no binding”.
For the molecule GGAGCGGGTCGGAGG (ssDNA) [bFGF-PQS6], the binding result is given as “no binding”.
In the case of GGGGGCGCGGGAGGCTGGTGGGTGTGGGGGG (ssDNA) [bFGF-PQS3], the binding result is recorded as “no binding”.
The same measure, in the same setting: for GGCCGCGGCAGGGCTTTGG (ssDNA) [bFGF-PQS18] the value was “no binding”.
Still for that read-out and setting: in the case of GGTTTCTGGCCGCGCGGCCCTCGG (ssDNA) [bFGF-PQS8] it was “no binding”; in that of GGGGGCGGGGGAGAGGCGAGGGGCGGGGGG (ssDNA) [bFGF-PQS17], “no binding”; in that of GGCCGGGCGGGAAGG (ssDNA) [bFGF-PQS13], “no binding”.
The same measure, in the same setting: for GGGCAAGGCGGGCAGCGTGG (ssDNA) [bFGF-PQS14] the value was “no binding”; for GGGCCGGGGCCGGGGGACGG (ssDNA) [bFGF-PQS7], “no binding”.
For the molecule GGCGAGCCGGCGGCCCGGGACCTGGG (ssDNA) [bFGF-PQS16], the binding result is listed as “no binding”.
Same read-out and setting: in the case of GGCTCGAGGCTGGGGGACCGCGG (ssDNA) [bFGF-PQS4] it was “no binding”; in that of GGGCCGGGGGTACTGGTTTACAGG (ssDNA) [bFGF-PQS10], “no binding”; in that of GGCTGCGGCGTAGGCCCGGG (ssDNA) [bFGF-PQS9], “no binding”.
The same measure, in the same setting: in the case of GGGGGCGGCGCGCAGGAGGGAGG (ssDNA) [bFGF-PQS2] it was “no binding”.

Another data set has as its target HB-EGF (UniProt Q99075 63-148). Briefly: SPR.
Take GGCACGGGCCACTTGGTGGGG (ssDNA) [HBEGF-PQS10]: the binding result was “no binding”.
Still for that read-out and setting: for GGAGGCGGCGAGG (structured_DNA) [HBEGF-PQS2] the value was “no binding”; for GGCGCGCGGGGTCGGGCGGCCGCGCGGG (ssDNA) [HBEGF-PQS6], “no binding”; for GGACGGGCGTCGGCATCGG (ssDNA) [HBEGF-PQS11], “no binding”.
GGAGGCGGCCGG (ssDNA) [HBEGF-PQS14]: the binding result is “no binding”.
Same read-out and setting: in the case of GGGAGGGTCCGGGTTGCTGG (structured_DNA) [HBEGF-PQS1] it was “no binding”; in that of GGGCGGCGGAGCTCAGG (ssDNA) [HBEGF-PQS4], “no binding”.
Same read-out and setting: in the case of GGCGGGCGGCAGACGGTGCCCGG (ssDNA) [HBEGF-PQS7] it was “no binding”; in that of GGCCGGGAATAAGGCTCCAGG (ssDNA) [HBEGF-PQS5], “no binding”; in that of GGCGGCCACTGGGCGCTGG (ssDNA) [HBEGF-PQS3], “no binding”.
Same read-out and setting: in the case of GGAGCGGCTTCGGAGAGG (ssDNA) [HBEGF-PQS13] it was “no binding”.
Take GGTCAGGGGTCTGGGCGGG (structured_DNA) [HBEGF-PQS12]: the binding result is “no binding”.

The next data set addresses aFGF (UniProt P05230 16-155). In words: SPR.
In the case of GGCACTGGAGGAATGG (ssDNA) [aFGF-PQS5], the binding result is “no binding”.
Still for that read-out and setting: for GGATGGGACAAGGGACAGG (ssDNA) [aFGF-PQS22] the value was “no binding”; for GGTGGGAGGAAGG (ssDNA) [aFGF-PQS23], “no binding”; for GGGAAGGAGGGAGGAAGGGAGGGAGGG (ssDNA) [aFGF-PQS20], “no binding”.
The same measure, in the same setting: in the case of GGAAATGAGGCAGAGGGGGAGTAAGG (ssDNA) [aFGF-PQS17] it was “no binding”; in that of GGGTGGTGTGGGAGTGG (ssDNA) [aFGF-PQS12], “no binding”.
Still for that read-out and setting: in the case of GGCATGGTATCTGGAGGCAGG (ssDNA) [aFGF-PQS13] it was “no binding”; in that of GGTGGGTGGGTATGG (ssDNA) [aFGF-PQS4], “no binding”.
Regarding GGGAGGTTAGGGTTGG (ssDNA) [aFGF-PQS18], the binding result is “no binding”.
Take GGGCTTGGCTCTGGGGATGG (ssDNA) [aFGF-PQS11]: the binding result is on record as “no binding”.
On the same count and under the same terms, in the case of GGTTGGGACTGGCGAGG (ssDNA) [aFGF-PQS8] it was “no binding”.
On the same count and under the same terms, in the case of GGGCTGGAGGGGGCAGG (ssDNA) [aFGF-PQS14] it was “no binding”; in that of GGTGGAGGAAAGG (ssDNA) [aFGF-PQS19], “no binding”.
Still for that read-out and setting: in the case of GGTCCCAGGCCTGGGAGGG (ssDNA) [aFGF-PQS21] it was “no binding”.
As for GGAGACGGTAGGGCAAAGTGG (ssDNA) [aFGF-PQS3], the binding result is given as “no binding”.
The same measure, in the same setting: in the case of GGTGGGGGGGG (ssDNA) [aFGF-PQS7] it was “no binding”; in that of GGAGAGGGTAGAGTGGGATGGG (ssDNA) [aFGF-PQS2], “no binding”; in that of GGCCAGGACAGGGTAAGG (ssDNA) [aFGF-PQS9], “no binding”.
On the same count and under the same terms, for GGCTAGAAGGTGGGGAATAAGG (ssDNA) [aFGF-PQS10] the value was “no binding”.
Still for that read-out and setting: for GGGAGAGGGACGGGCCGTGG (ssDNA) [aFGF-PQS6] the value was “no binding”; for GGAGAACAGGAAGGCGGGGGTGAGGG (ssDNA) [aFGF-PQS1], “no binding”; for GGCCTGCAGGACTCTGGGAGG (ssDNA) [aFGF-PQS15], “no binding”.
GGGCAAAGGTCCTAGGGTGGGGG (ssDNA) [aFGF-PQS16]: the binding result is recorded as “no binding”.

The next data set deals with ApoE4 (UniProt P02649 19-317, C130R). In words: SPR.
ApoE4, sequence (P02649 19-317 C130R): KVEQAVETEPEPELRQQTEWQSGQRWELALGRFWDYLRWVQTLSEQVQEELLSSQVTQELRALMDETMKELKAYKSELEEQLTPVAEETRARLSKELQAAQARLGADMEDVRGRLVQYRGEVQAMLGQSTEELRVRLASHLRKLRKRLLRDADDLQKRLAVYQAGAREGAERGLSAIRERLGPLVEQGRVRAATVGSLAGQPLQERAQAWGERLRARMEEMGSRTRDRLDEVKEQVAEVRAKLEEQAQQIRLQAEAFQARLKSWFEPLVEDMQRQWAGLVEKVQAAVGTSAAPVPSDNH
Take GGACGAGGTGAAGGAGCAGG (structured_DNA) [ApoE4-PQS6]: the binding result is recorded as “no binding”.
Same read-out and setting: in the case of GGCTGGTGGAGAAGGTGCAGG (structured_DNA) [ApoE4-PQS7] it was “no binding”; in that of GGCCCGGCTGGGCGCGG (structured_DNA) [ApoE4-PQS2], “no binding”.
Still for that read-out and setting: in the case of GGATGGAGGAGATGGGCAGCCGG (structured_DNA) [ApoE4-PQS5] it was “no binding”; in that of GGAGCGGGCCCAGGCCTGGG (structured_DNA) [ApoE4-PQS4], “no binding”; in that of GGCCCCTGGTGGAACAGGG (structured_DNA) [ApoE4-PQS3], “no binding”.
